From publication PMC11564117, “Control of mitophagy initiation and progression by the TBK1 adaptors NAP1 and SINTBAD” (Nature Structural & Molecular Biology, 2024)

Target: T1, SINTBAD–mCherry (UniProt A7MCY6 1-615)
T1 construct: the legend says SINTBAD-mCherry; also called mCherry–SINTBAD; similar to NAP1 TBK1 adaptor; source: Sf9 insect cells, purified (GST-batch protocol); not shown: mCherry, C-terminal, kept
Experiment: microscopy-based bead assay; Figs. 5b, 7d, 7f, Extended Data Fig. 9b: GST–4×Ub on glutathione beads; OPTN (mCherry-tagged or unlabeled) and GFP–TBK1 250 nM; NAP1, MBP–NAP1 or SINTBAD–mCherry 100 nM to 10 µM; unlabeled NDP52 250 nM where indicated; 25 mM Tris-HCl pH 7.4, 150 mM NaCl, 1 mM DTT; Fig. 5b without ATP, Fig. 7f with or without ATP/MgCl2; 30 min; confocal imaging
Conditions: both partners purified

T1 sequence (A7MCY6 whole entry): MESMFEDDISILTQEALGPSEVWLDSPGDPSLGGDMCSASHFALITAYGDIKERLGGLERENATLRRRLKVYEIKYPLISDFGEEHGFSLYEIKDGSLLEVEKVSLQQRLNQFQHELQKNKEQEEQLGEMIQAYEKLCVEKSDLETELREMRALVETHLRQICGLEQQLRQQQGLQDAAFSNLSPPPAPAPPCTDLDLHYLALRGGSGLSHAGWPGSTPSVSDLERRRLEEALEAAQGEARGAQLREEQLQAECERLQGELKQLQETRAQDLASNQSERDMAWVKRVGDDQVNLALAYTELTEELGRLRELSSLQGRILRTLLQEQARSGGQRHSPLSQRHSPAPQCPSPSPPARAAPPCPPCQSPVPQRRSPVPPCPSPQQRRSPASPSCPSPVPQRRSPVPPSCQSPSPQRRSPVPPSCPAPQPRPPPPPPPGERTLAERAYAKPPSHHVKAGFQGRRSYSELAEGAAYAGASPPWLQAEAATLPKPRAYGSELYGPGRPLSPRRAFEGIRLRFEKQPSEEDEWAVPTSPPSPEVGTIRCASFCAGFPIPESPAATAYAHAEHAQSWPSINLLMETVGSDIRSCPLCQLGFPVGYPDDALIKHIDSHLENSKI

B1: NDP52 (unlabeled) (natural protein, human, UniProt Q13137 1-446, looked up)
chain: MEETIKDPPTSAVLLDHCHFSQVIFNSVEKFYIPGGDVTCHYTFTQHFIPRRKDWIGIFRVGWKTTREYYTFMWVTLPIDLNNKSAKQQEVQFKAYYLPKDDEYYQFCYVDEDGVVRGASIPFQFRPENEEDILVVTTQGEVEEIEQHNKELCKENQELKDSCISLQKQNSDMQAELQKKQEELETLQSINKKLELKVKEQKDYWETELLQLKEQNQKMSSENEKMGIRVDQLQAQLSTQEKEMEKLVQGDQDKTEQLEQLKKENDHLFLSLTEQRKDQKKLEQTVEQMKQNETTAMKKQQELMDENFDLSKRLSENEIICNALQRQKERLEGENDLLKRENSRLLSYMGLDFNSLPYQVPTSDEGGARQNPGLAYGNPYSGIQESSSPSPLSIKKCPICKADDICDHTLEQQQMQPLCFNCPICDKIFPATEKQIFEDHVFCHSL
notes: NDP52 (CALCOCO2), human cDNA in a pGST2 vector with N-terminal GST tag and TEV site; Called 'unlabeled NDP52' in the bead assays; also called nuclear dot protein 52; CALCOCO2; source: E. coli Rosetta pLysS, purified (GST-batch protocol)
  binding result: binds
